Results taken from patent US20030036166A1.

Key:
ErbB4.Fc [1] = biological target: T1, ErbB4.Fc (UniProt Q15303); assay: displacement of ^125I-NRG3^EGF.Fc (80 pM) from immobilized ErbB4.Fc by NRG1^EGF, 96-well plate, nonlinear regression
T1 sequence (looked up): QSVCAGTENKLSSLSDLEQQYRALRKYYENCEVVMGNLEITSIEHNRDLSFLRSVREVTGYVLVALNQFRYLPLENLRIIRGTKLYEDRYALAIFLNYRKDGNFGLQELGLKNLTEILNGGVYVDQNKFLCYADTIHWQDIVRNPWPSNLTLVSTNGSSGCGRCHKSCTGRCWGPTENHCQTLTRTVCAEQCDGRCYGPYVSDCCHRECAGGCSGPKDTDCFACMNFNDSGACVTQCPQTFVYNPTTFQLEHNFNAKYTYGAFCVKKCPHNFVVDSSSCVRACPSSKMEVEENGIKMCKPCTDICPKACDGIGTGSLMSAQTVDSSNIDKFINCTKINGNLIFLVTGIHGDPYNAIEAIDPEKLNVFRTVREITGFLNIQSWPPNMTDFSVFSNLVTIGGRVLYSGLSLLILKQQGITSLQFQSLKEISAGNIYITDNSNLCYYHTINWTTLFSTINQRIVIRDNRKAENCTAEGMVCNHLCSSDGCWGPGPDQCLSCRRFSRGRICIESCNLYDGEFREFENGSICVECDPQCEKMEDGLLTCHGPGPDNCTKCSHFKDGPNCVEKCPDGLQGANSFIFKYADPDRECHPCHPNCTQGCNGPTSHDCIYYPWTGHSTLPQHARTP

ErbB4.Fc [2] = biological target: T1, ErbB4.Fc; assay: displacement of ^125I-NRG3^EGF.Fc (80 pM) from immobilized ErbB4.Fc by unlabeled NRG3^EGF.Fc, 96-well plate, nonlinear regression

Sequence of NRG3^EGF.Fc (O35181 284-344 limits assumed): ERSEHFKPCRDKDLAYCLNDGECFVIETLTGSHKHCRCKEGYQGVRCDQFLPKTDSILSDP

| Ki (ErbB4.Fc [1]) [nM] | Ki (ErbB4.Fc [2]) [nM] | Substance |
| --- | --- | --- |
| 1 | – | NRG1^EGF (EGF-like domain of heregulin-β1, rHRGβ1 177-244) (from UniProt Q02297 177-244) (ligand) |
| – | 9 | NRG3^EGF.Fc (from UniProt O35181 284-344) (Fc fusion) |
